Laboratory results as given in IntAct's records for PubMed 36931259.

B1: 14-3-3 protein sigma (Homo sapiens), P31947 (parent)
chain: MERASLIQKAKLAEQAERYEDMAAFMKGAVEKGEELSCEERNLLSVAYKNVVGGQRAAWRVLSSIEQKSNEEGSEEKGPEVREYREKVETELQGVCDTVLGLLDSHLIKEAGDAESRVFYLKMKGDYYRYLAEVATGDDKKRIIDSARSAYQEAMDISKKEMPPTNPIRLGLALNFSVFHYEIANSPEEAISLAKTTFDEAMADLHTLSEDSYKDSTLIMQLLRDNLTLWTADNAGEEGGEAPQEPQS
partner: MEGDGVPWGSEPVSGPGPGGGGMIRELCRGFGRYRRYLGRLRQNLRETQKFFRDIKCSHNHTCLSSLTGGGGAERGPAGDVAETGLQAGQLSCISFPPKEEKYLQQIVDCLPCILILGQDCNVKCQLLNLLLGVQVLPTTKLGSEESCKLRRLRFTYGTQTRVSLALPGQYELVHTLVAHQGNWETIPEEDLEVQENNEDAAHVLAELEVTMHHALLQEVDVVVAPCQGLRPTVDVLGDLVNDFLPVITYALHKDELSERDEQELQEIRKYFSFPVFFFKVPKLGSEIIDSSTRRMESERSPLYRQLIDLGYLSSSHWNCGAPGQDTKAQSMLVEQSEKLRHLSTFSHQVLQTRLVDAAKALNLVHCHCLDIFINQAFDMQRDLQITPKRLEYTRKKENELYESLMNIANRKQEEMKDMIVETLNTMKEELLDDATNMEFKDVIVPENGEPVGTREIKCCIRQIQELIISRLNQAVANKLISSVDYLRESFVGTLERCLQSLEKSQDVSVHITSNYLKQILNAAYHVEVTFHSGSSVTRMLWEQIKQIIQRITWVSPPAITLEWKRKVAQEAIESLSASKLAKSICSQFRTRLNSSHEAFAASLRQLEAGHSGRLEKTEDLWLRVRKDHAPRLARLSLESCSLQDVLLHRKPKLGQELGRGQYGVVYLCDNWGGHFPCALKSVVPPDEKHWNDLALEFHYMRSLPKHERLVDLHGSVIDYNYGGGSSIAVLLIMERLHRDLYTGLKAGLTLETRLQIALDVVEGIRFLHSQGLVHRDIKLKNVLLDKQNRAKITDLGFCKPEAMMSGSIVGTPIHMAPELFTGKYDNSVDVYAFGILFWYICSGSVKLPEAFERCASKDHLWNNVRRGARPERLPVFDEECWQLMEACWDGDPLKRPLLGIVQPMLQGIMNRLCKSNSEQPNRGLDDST
B2: 14-3-3 protein sigma (Homo sapiens), P31947 (parent)
chain: B1 chain
partner: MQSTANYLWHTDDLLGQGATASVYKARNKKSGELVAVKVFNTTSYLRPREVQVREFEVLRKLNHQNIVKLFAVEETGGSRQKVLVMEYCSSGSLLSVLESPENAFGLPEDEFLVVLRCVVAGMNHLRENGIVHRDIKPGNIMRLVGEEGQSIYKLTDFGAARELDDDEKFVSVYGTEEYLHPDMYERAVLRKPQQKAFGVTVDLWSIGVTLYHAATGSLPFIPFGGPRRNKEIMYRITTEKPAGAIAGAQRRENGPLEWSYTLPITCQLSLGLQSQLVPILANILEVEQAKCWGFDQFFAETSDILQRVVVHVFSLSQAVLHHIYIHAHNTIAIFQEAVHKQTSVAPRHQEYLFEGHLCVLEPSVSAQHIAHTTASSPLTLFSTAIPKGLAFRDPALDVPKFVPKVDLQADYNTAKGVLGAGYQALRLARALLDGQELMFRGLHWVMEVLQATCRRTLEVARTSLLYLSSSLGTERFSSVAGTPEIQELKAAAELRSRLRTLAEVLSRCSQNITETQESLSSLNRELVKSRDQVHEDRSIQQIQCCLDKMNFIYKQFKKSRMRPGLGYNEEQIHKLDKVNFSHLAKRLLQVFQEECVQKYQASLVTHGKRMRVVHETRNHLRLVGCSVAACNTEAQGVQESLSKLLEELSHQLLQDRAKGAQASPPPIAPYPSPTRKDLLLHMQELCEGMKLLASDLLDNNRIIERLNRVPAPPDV
B3: 14-3-3 protein sigma (Homo sapiens), P31947 (parent)
chain: B1 chain
partner: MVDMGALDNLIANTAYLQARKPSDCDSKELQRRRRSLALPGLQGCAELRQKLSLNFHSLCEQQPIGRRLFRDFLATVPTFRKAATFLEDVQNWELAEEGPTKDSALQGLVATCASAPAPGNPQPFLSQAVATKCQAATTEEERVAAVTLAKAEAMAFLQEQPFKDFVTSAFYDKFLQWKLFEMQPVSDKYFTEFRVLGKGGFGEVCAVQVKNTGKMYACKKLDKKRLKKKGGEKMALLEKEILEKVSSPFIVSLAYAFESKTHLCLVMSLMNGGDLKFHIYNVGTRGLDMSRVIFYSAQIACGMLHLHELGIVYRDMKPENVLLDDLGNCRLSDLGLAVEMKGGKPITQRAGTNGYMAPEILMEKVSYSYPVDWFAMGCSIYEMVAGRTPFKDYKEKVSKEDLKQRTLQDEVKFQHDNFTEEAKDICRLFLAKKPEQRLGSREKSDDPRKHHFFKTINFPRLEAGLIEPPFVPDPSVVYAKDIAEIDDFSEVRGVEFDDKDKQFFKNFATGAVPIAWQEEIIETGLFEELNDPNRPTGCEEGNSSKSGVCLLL
B4: 14-3-3 protein sigma (Homo sapiens), P31947 (parent)
chain: B1 chain
partner: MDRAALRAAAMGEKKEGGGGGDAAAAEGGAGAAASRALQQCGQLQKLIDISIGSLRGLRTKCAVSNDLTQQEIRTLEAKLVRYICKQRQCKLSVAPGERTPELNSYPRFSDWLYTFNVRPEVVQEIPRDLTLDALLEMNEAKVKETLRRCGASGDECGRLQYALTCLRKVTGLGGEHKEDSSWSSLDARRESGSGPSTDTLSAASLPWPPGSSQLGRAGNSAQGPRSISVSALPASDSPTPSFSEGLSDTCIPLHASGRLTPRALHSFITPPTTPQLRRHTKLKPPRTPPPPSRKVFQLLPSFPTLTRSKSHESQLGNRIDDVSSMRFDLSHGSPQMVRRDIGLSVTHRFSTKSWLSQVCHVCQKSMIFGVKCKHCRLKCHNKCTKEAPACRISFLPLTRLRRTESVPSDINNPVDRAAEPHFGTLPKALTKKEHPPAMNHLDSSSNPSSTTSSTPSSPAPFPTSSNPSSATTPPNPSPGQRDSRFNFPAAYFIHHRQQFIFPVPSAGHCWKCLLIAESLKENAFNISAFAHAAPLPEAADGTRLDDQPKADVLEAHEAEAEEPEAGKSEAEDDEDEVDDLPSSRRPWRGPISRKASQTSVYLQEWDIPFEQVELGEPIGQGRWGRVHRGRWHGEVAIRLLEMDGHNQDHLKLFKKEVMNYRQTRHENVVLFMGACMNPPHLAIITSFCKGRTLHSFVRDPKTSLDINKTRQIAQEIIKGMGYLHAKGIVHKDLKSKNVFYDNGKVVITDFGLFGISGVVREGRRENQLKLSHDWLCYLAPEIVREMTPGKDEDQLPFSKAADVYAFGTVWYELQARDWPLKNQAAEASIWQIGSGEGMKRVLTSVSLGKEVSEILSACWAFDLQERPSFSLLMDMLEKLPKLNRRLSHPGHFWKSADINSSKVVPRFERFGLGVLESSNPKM
B5: 14-3-3 protein sigma (Homo sapiens), P31947 (parent)
chain: B1 chain
partner: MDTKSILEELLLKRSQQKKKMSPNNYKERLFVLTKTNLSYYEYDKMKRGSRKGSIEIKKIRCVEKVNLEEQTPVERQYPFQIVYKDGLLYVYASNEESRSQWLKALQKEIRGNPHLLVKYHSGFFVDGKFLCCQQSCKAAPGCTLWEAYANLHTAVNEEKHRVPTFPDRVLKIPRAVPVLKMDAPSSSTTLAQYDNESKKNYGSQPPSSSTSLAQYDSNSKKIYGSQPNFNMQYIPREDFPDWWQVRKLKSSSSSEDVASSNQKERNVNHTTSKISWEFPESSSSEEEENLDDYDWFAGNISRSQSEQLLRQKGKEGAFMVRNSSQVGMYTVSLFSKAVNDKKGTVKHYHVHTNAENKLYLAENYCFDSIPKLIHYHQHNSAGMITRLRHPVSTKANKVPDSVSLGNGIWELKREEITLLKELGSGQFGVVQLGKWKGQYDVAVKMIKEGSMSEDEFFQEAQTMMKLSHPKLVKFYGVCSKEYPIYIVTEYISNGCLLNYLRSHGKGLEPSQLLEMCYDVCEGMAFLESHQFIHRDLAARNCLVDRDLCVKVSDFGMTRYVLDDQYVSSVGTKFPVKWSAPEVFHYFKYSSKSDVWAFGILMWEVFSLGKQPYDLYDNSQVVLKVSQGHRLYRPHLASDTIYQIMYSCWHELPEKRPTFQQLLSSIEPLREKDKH

Variants of: B1
Conditions: with dusty_human DSTYK

effect of a mutation on the interaction	Variant
decreasing interaction strength	MERASLIQKAKLAEQAERYEDMAAFMKGAVEKGEELSCEERNLLSVAYENVVGGQEAAWRVLSSIEQKSNEEGSEEKGPEVREYREKVETELQGVCDTVLGLLDSHLIKEAGDAESRVFYLKMKGDYYRYLAEVATGDDKKRIIDSARSAYQEAMDISKKEMPPTNPIRLGLALNFSDFHYEIANSPEEAISLAKTTFDEAMADLHTLSEDSYKDSTLIMQLLRDNLTLWTADNAGEEGGEAPQEPQS [K49E;R56E;V178D]

Variants of: B2
Conditions: with ikke_human IKBKE

effect of a mutation on the interaction	Variant
decreasing interaction strength	MERASLIQKAKLAEQAERYEDMAAFMKGAVEKGEELSCEERNLLSVAYENVVGGQEAAWRVLSSIEQKSNEEGSEEKGPEVREYREKVETELQGVCDTVLGLLDSHLIKEAGDAESRVFYLKMKGDYYRYLAEVATGDDKKRIIDSARSAYQEAMDISKKEMPPTNPIRLGLALNFSDFHYEIANSPEEAISLAKTTFDEAMADLHTLSEDSYKDSTLIMQLLRDNLTLWTADNAGEEGGEAPQEPQS [K49E;R56E;V178D]

Variants of: B3
Conditions: with grk7_human GRK7, Q8WTQ7

effect of a mutation on the interaction	Variant
decreasing interaction strength	MERASLIQKAKLAEQAERYEDMAAFMKGAVEKGEELSCEERNLLSVAYENVVGGQEAAWRVLSSIEQKSNEEGSEEKGPEVREYREKVETELQGVCDTVLGLLDSHLIKEAGDAESRVFYLKMKGDYYRYLAEVATGDDKKRIIDSARSAYQEAMDISKKEMPPTNPIRLGLALNFSDFHYEIANSPEEAISLAKTTFDEAMADLHTLSEDSYKDSTLIMQLLRDNLTLWTADNAGEEGGEAPQEPQS [K49E;R56E;V178D]

Variants of: B4
Conditions: with ksr1_human KSR1, Q8IVT5

effect of a mutation on the interaction	Variant
decreasing interaction strength	MERASLIQKAKLAEQAERYEDMAAFMKGAVEKGEELSCEERNLLSVAYENVVGGQEAAWRVLSSIEQKSNEEGSEEKGPEVREYREKVETELQGVCDTVLGLLDSHLIKEAGDAESRVFYLKMKGDYYRYLAEVATGDDKKRIIDSARSAYQEAMDISKKEMPPTNPIRLGLALNFSDFHYEIANSPEEAISLAKTTFDEAMADLHTLSEDSYKDSTLIMQLLRDNLTLWTADNAGEEGGEAPQEPQS [K49E;R56E;V178D]

Variants of: B5
Conditions: with bmx_human BMX

effect of a mutation on the interaction	Variant
decreasing interaction strength	MERASLIQKAKLAEQAERYEDMAAFMKGAVEKGEELSCEERNLLSVAYENVVGGQEAAWRVLSSIEQKSNEEGSEEKGPEVREYREKVETELQGVCDTVLGLLDSHLIKEAGDAESRVFYLKMKGDYYRYLAEVATGDDKKRIIDSARSAYQEAMDISKKEMPPTNPIRLGLALNFSDFHYEIANSPEEAISLAKTTFDEAMADLHTLSEDSYKDSTLIMQLLRDNLTLWTADNAGEEGGEAPQEPQS [K49E;R56E;V178D]
